# Source: the Immune Epitope Database (IEDB)
# Experiments:
# Test in all cases: IEDB peptide-MHC binding, purified MHC/competitive/radioactivity; ≥ and ≤ were set here for values at or beyond the usual limits of such assays
# Details in all cases: source organism: Bordetella pertussis
# HLA-A*02:01 = target: HLA-A*02:01
# HLA-B*57:01 = target: HLA-B*57:01
# HLA-B*53:01 = target: HLA-B*53:01
# HLA-B*44:03 = target: HLA-B*44:03
# HLA-B*35:01 = target: HLA-B*35:01
# HLA-B*07:02 = target: HLA-B*07:02
sequence,measurement,setting,value
VLAPRLYLT,IC50,HLA-A*02:01,7.98 µM
GLYQTYTEW,IC50,HLA-B*57:01,41.4 µM
same,IC50,HLA-B*53:01,69.9 µM
ISVRVHVSK,IC50,HLA-B*57:01,2.74 µM
IESKISQSV,IC50,HLA-B*44:03,39.9 µM
ITNKRAALI,IC50,HLA-B*57:01,40 µM
LAAIASAAH,IC50,HLA-B*35:01,49.8 µM
SPRRARRAL,IC50,HLA-B*07:02,0.0138 µM
LAPTVGVAF,IC50,HLA-B*35:01,7.6 µM
LAWALMLAC,IC50,HLA-B*53:01,6.64 µM
TPFDIKLKE,IC50,HLA-B*53:01,34.7 µM
APQAAPLSI,IC50,HLA-B*07:02,2.21 µM
same,IC50,HLA-B*53:01,42.4 µM
YQTYTEWSV,IC50,HLA-A*02:01,0.384 µM
QQVQVLQRQ,IC50,HLA-B*44:03,15.8 µM
ALMLACTGL,IC50,HLA-A*02:01,10.8 µM
LLNAGGTLL,IC50,HLA-A*02:01,2.57 µM
LANDGTIVI,IC50,HLA-B*35:01,5.87 µM
AAGFDPEVQ,IC50,HLA-B*35:01,32.7 µM
LAMPWTFHA,IC50,HLA-A*02:01,1.17 µM
TFTGKVTNG,IC50,HLA-B*53:01,39.9 µM
YYDYEDATF,IC50,HLA-B*53:01,69.9 µM
TPFIIKLKD,IC50,HLA-B*53:01,≥ 78.2 µM
